The source of these data is patent publication US9271932B2, “Fusogenic properties of saposin C and related proteins and peptides for application to transmembrane drug delivery systems” (CHILDREN'S HOSPITAL MEDICAL CENTER, priority 2006, dated 2016).

Data set [1] is described as follows: R18 dequenching stopped-flow liposomal fusion assay. It counts as biochemical. As to conditions: unsaturated PS(18:1,1) vesicles, compared with Ca^2+. The text has this: Fluorescence probes have been widely used to determine membrane fusion, such as fluorescence dequenching, and fluorescence resonance energy transfer (FET), and can be used for quantitative and kinetics analyses. The dequenching approach is used to investigate saposin C's fusogenic activity. Octadecyl rhodamine B (R18) is selected as fluorescence probe and is entrapped in internal aqueous compartment of liposomal vesicles by co-sonication with BPS or PS(18:1,1).
Fluorescence increase (dequenching) of R18 occurs upon R18 concentration decreases. After non-labeled and labeled vesicles fuse, the R18 concentration is diluted, resulting in an increase in intensity of fluorescence. R18-labeled vesicles (lipid:R18=96:4, mol:mol) are mixed with the same lipid vesicles without fluorescence probe. Stopped-flow assays are conducted to quickly mix these vesicles with saposin C or Ca^2+ ion. Time-trace curves are generated for kinetic analysis. […] Fusion occurs extensively when reaction temperature is above the phase Transition temperature (Tc) of phospholipids. The Tc of synthetic PS(18:1) is about −11° C., while the Tc of PS(18:0) is very high (68° C.). Thus, the lipid bilayer phase of PS(18:1,1) is different to that of BPS(18:0 and 18:1) at 24° C.

The nature of data set [2]: Fluorescence stopped-flow of saposin C binding to PS vesicles. Particulars: PS(18:1,1) or BPS vesicles. An excerpt:
To investigate temporal and spatial interactions of saposins and liposomal membrane, fluorescence stopped-flow and quenching approaches are used with Trp as the intrinsic fluorescence probe of the saposins. These experiments allow identification of regional interactions between saposins and lipid bilayers, and also the kinetics of their binding.
This binding induces change is lipid-concentration dependent and requires at least one unsaturated fatty acid chain. To evaluate the kinetics of this interaction, stopped-flow experiments are conducted the change in fluorescence during saposin C/liposome complex formation is monitored. When saposin C(0W) is mixed with PS(18:1,1) or BPS vesicles, fluorescence of Trp is increased, but the time course of this change is undetectable due to limitation of the machine's capability. Apparently, the interaction of saposin C and unsaturated PS containing membranes occurs within at least 10 ms.

Another data set has as its target T1, acid β-glucosidase (Homo sapiens, UniProt P04062).
T1 sequence (P04062 40-536): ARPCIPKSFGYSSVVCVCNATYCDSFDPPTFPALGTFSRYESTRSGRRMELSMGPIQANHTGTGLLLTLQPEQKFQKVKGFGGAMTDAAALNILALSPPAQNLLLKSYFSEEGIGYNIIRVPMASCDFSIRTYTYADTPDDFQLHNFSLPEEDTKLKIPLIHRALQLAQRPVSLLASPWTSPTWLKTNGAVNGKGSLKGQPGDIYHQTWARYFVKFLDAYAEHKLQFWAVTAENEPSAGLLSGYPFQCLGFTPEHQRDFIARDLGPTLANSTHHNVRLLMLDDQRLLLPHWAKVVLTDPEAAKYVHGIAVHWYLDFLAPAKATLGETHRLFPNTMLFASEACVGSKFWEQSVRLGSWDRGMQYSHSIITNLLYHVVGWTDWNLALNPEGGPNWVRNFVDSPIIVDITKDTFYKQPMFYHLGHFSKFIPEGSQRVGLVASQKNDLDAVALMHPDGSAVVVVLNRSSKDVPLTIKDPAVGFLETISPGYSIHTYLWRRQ
Kind of data set: Acid β-glucosidase activation in liposomal reconstitution system. It is filed as biochemical. On the procedure: Functional saposins were overexpressed in BL21(DE3) cells using a pET 21a series vector. Following IPTG induction at 37° C. or 30° C., large amounts of saposins containing His-Tag were found in the soluble fraction of the disrupted cells. These were conveniently purified to electrophoretic homogeneity on nickel-loaded columns. Alternatively, saposins without His-Tag were generated by introducing a stop codon after protein coding region, and then purified using immuno-affinity columns with T7-taq monoclonal antibody. […] Circular dichroism spectra, light scattering, and ES-MS analyses were used to evaluate the physical properties of the purified saposins, such as aggregation status and molecular weight. Trp-saposins without His-Tag were also generated for necessary control experiments. The functional integrity of recombinant saposin C is determined using delipidated and homogenous acid β-glucosidase in a liposomal reconstitution system and in neuritogenic assays. Recombinant saposin B function is determined using a sulfatide binding assay.

Data set [3] deals with cultured mouse cortical and hippocampal neurons. Description: Transport of saposin C into cultured neurons by DOPS liposomes. It counts as cell-based. As to conditions: facilitated by complexes with DOPS liposomes. On the procedure: Saposin C can be transported into endosomal and lysosomal compartments using saposin-C liposomes containing long-chain anionic phospholipids. This method can be used for the treatment of neurological diseases including, for example, those in which MVB accumulation contributes to pathology and progression of disease.
Primary Cortical Neuron Cultures—Cortical neurons are cultured in serum-free Neuroblasal medium with B27 supplements as described by Whitmarsh et al.^44 Take out E16 mouse embryos, cut the head and place them into ice-cold Ca/Mg-free Hank Balance Salt Solution (HBSS) with papain (1 mg/ml). The brain is dissected out and place scalpel along the dorsal midline between the two cerebral hemispheres but slightly deviate towards to the side as it cut. This will give a clean cerebral cortex. […]
Immunofluorescence staining is done as described with minor modification.^15 Cultured cells (1×10^5) in a dish with coverslips are washed with PBS and fixed with 2% paraformaldehyde for 10 min at room temperature. After treating with 0.1% Triton X-100 in PBS, the samples are incubated with each respective primary antiserum (for 2 h) and fluorescence-conjugated secondary antibody (for 1 h) at 37° C. […] Antifade is added on the section to prevent the fluorescence quenching. Fluorescence signals are detected by a confocal microscopy (LSM510, Zeiss) or a fluorescence microscopy (Zeiss Axioskop).

Data set [4] in a line: Saposin C-PS(18:1,1) liposome complex: stability and mechanism of fusion. It is filed as biochemical. The protocol:
Protein conformational changes are thought to play a role in protein-mediated membrane fusion. This fusion mechanism is evaluated using saposin C-dependent membrane fusion. First, saposin C—PS(18:1,1) liposome complexes are formed. In this saposin C-anchored membrane, protein conformation is altered. This complex is stable from pH 3 to 10, and in low concentrations of SDS solution.
Since the Trp in saposin C(0W) is embedded inside of lipid bilayer, the change of its signal is indicative of that the surrounding environment of Trp has been changed. After about 20 to 30 ms, Trp fluorescence signal decreases to the starting level. […] Shortly after this, the signal drops back to starting level signaling on end of the fusion process. […] Therefore, a conformational change of saposin C upon lipid binding is […] for its fusogenic activity.

A short description of data set [5]: Vesicle size change determination (N4 plus submicron particle sizer). It is filed as biochemical. An excerpt:
The amino acid residues 51-67 are necessary, but not sufficient, for its optimal enzymatic activation function. The disulfide structure and conformational alteration of saposin C upon lipid binding are also required for this activity. Three approaches are used for this study: (1) stopped-flow monitoring reduction of self-quenching resulting from fusion of fluorescence probe-containing vesicle with non-fluorescent vesicle induced by saposin C; (2) monitoring the lipid vesicle size changes upon addition of saposin C to vesicles, the size distribution as determined using N4 plus submicron particle sizer (Coulter Co.); (3) monitoring intrinsic fluorescence of Trp-saposin C change during liposomal fusion.
[…] is used for vesicle fusion analysis, since the size of fused vesicles is bigger than those of non-fused. N4 plus submicron particle size is used to estimate particle sizes in the range of 3 nm to 3 μm since most liposomes fit in this range. Sonication conditions with a cup sonicator give mono-dispersed BPS-liposomes with ˜200 nm in size. Upon addition of saposin C, these vesicles change to a larger size up to 2-3 μm. The size increase is related to vesicles fusion as shown by the above dequenching experiments.
Saposin C promotes the size changes at ˜50 nM concentration. To define the regions responsible for this fusion property, peptides containing only 50% of the NH2-terminal or 50% of the COOH-terminal halves in saposin C are tested. Both peptides show fusion activity.

Changes are numbered by the printed parent chain. Names may count otherwise.

B1: Saposin C: Recombinant saposin C, prosaposin-derived fusogenic lysosomal protein, expressed in E. coli (His-tag) (protein, listed as Homo sapiens)
chain: SDVYCEVCEFLVKEVTKLIDNNKTEKEILDAFDKMCSKLPKSLSEECQEVVDTYGSSILSILLEEVSPELVCSMLHLCSG
modifications: His-tag
Regarding B1, the “kinetics of induced membrane fusion” value in data set [1] is given as “same kinetics as those with Ca^2+”. Also, in data set [2], the “time within which interaction with unsaturated PS containing membranes occurs” value is recorded as at most 10 ms. For the same molecule, the “activation of acid β-glucosidase” value with acid β-glucosidase was “excellent activation”. Further, in data set [3], the transport into neurons result was “can be transported into the cultured mouse cortical and hippocampal neurons”. The “fusogenic activity when bound to lipid membrane” value in data set [4] is given as “retains the fusogenic activity”. Further, in data set [5] (BPS-liposomes), the “concentration promoting the size changes” value is given as about 50 nM. Further, the “vesicle size after addition of saposin C” value in data set [5] (mono-dispersed BPS-liposomes of ~200 nm before addition) is recorded as 2-3 μm. Moreover, the vesicle size enlargement result in data set [5] (pH 4.7, over a 10 min period) is recorded as “enlarges vesicle size”; in data set [5] (pH 7.4, over a 10 min period) it was “not at pH 7.4”.

B2: Saposin C(S37W): saposin C with a Trp at residue 37 (in the middle) (protein, UniProt P07602 311-390, looked up, variant S37W)
Saposin-C: B1 chain with S37W
modifications: Saposin-C
As to B2, the “effect of Trp substitutions on activation properties” value in the data set with acid β-glucosidase is given as “no effect”.

B3: Saposin C + Phosphatidylserine (18:1, 1): saposin C complexed with acidic, unsaturated phosphatidylserine PS(18:1,1) liposomes (protein, UniProt P07602 311-390, looked up)
Saposin-C: B1 chain
modifications: Saposin-C complexed with phosphatidylserine liposomes
notes: saposin C complexed with acidic, unsaturated phosphatidylserine PS(18:1,1) liposomes
For the molecule B3, in data set [4], the “stability in low concentrations of SDS solution” value is “stable”.
